The text below walks through data of patent publication US20260108618A1 (published 2026).

Assay [1] concerns the target T1, Conjugate 45b (human, UniProt P0DOX5 203-448 = IgG part). The assay is described as follows: ELISA.
The target in assay [2] is T1, Conjugate 45b. Description: ELISA: conjugate coated on the plate, His-tagged receptor titrated, anti-His HRP detection.

B1: human Fcγ RIIb (receptor)
chain: APPKAVLKLEPQWINVLQEDSVTLTCRGTHSPESDSIQWFHNGNLIPTHTQPSYRFKANNNDSGEYTCQTGQTSLSDPVHLTVLSEWLVLQTPHLEFQEGETIVLRCHSWKDKPLVKVTFFQNGKSKKFSRSDPNFSIPQANHSHSGDYHCTGNIGYTLYSSKPVTITVQAP
As to B1, in the assay with Conjugate 45b [1], the binding result was “binds”.

B2: rat FcγR3A/CD16a (receptor)
chain: GLQKAVVNLDPEWVRVLEEDCVILRCQGTFSPEDNSTKWFHNKSLISHQDANYVIQSARVKDSGMYRCQTAFSALSDPVQLDVHADWLLLQTTKRLFQEGDPIRLRCHSWRNTPVFKVTYLQNGKGKKYFHRNSELSISKATHADSGSYFCRGIIGRNNISSASLQISIGDPTSPSSFLPWHQ
On to B2, for which, in the assay with Conjugate 45b [2], the binding result was “binds”.

B3: mouse FcγR2B/CD32b (receptor)
chain: THDLPKAVVKLEPPWIQVLKEDTVTLTCEGTHNPGNSSTQWFHNGRSIRSQVQASYTFKATVNDSGEYRCQMEQTRLSDPVDLGVISDWLLLQTPQLVFLEGETITLRCHSWRNKLLNRISFFHNEKSVRYHHYSSNFSIPKANHSHSGDYYCKGSLGRTLHQSKPVTITVQGPKSSR
notes: also called murine Fcγ RIIb
With B3, in the assay with Conjugate 45b [1], the binding result is “binds”.
